# Assay results as given in patent US20250163183A1 (COAGULANT THERAPEUTICS, published 2025).
# T1: FVIIa (UniProt P08709 61-466)
# T1 construct: also called factor VIIa
# T1 sequence (looked up): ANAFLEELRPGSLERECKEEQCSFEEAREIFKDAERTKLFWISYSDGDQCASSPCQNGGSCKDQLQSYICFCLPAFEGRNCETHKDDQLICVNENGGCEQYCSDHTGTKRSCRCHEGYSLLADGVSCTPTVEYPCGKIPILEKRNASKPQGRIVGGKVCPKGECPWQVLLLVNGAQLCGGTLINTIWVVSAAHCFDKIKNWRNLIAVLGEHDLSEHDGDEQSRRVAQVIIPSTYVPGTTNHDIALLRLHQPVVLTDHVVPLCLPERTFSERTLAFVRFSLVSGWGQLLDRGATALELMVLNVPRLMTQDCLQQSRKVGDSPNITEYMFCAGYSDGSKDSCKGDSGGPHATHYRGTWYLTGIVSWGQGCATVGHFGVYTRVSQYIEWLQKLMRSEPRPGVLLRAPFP
# What was measured:
# [1] = target: T2, human protein C (PC) zymogen (human, UniProt P04070 43-197; P04070 200-461); assay: ELISA
# T2 construct: Bought
# [2] = target: T3, human activated protein C (APC) (human, UniProt P04070 43-461); assay: cell-based or functional assay
# [3] = target: T3, human activated protein C (APC); assay: cell-based or functional assay; remark: listed apart in the source
# [4] = target: T3, human activated protein C (APC); assay: BLI, VHH captured via anti-V5, APC in solution
# FXIa = target: T4, FXIa (UniProt P03951 19-625); assay: ELISA, FXIa coated at 10 µg/mL, HRP-anti-V5, n=3
# T4 construct: also called factor XIa
# FVIIa = target: T1, FVIIa; assay: ELISA, FVIIa coated at 10 µg/mL, HRP-anti-V5, n=3
# [5] = target: T3, human activated protein C (APC); assay: BLI; end tied to LP12 by Table 5; lower end of the koff range, LP9 set apart; LP12
# [6] = target: T3, human activated protein C (APC); assay: BLI (Octet): nanobody captured on anti-V5 sensor, dipped in 500 nM APC; buffer sensor reads 0.06
# [7] = target: T2, human protein C (PC) zymogen; assay: ELISA screen, PC-coated wells, OD450, n=2
# [8] = target: T3, human activated protein C (APC); assay: BLI; end tied to LP8 by Table 5; upper end of the kon range; LP8
# [9] = target: T3, human activated protein C (APC); assay: BLI; end tied to LP2 by Table 5; lower end of the kon range; LP2
# T2 sequence (P04070 43-197, chain 1 of 2): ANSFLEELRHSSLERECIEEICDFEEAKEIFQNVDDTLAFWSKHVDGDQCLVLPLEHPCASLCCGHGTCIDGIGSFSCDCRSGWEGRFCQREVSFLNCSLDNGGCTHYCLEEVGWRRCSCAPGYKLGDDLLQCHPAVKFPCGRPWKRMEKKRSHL
# T2 sequence (P04070 200-461, chain 2 of 2): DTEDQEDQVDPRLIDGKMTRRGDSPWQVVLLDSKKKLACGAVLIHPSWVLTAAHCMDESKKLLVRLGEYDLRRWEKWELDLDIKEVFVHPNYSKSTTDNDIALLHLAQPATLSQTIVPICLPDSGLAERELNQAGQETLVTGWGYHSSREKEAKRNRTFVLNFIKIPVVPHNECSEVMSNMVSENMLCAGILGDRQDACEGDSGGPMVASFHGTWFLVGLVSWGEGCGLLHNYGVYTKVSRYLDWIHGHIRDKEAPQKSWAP
# T3 sequence (P04070 other isoform, or with tags, fused parts or gaps): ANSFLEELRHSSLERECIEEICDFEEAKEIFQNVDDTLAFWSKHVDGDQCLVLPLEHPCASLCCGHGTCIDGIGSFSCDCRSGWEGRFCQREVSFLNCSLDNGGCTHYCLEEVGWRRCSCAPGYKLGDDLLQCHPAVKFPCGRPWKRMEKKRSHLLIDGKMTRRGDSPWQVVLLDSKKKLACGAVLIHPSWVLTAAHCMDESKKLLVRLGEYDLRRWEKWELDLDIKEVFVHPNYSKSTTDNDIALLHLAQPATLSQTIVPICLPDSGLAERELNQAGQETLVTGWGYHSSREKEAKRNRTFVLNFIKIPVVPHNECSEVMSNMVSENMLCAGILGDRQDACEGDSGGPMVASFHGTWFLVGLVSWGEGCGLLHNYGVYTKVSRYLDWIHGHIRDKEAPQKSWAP
# T4 sequence (P03951 19-625 limits assumed): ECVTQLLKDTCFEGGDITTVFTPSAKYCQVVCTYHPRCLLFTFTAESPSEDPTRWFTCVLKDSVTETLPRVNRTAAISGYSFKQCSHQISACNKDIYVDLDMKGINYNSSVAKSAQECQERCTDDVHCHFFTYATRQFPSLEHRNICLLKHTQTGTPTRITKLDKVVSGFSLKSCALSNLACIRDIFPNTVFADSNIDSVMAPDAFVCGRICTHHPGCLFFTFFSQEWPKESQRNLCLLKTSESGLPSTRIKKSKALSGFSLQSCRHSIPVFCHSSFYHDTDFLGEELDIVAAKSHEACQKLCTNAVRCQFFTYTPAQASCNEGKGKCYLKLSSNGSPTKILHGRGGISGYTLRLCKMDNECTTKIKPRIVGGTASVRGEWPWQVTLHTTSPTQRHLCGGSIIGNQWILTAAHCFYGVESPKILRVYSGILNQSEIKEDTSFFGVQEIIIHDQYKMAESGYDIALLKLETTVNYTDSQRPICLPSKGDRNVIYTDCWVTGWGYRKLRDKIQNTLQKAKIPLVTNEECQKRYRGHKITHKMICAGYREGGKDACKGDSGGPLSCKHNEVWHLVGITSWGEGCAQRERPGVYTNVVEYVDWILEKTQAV
binding result [1],"APC-mediated histone H3 cleavage, 500 nM nanobody [2]",APC plasma T1/2 (min; mean) [3],Kd [4],koff [4],kon [4],binding result (FXIa),binding result (FVIIa),koff [5],APC binding (nm) [6],"Protac-APTT clotting time, 300 nM nanobody [2]",binding result [7],kon [8],kon [9],Binder
no binding,< 75 % residual activity,50.1 min,0.68 nM,0.00026 s⁻¹,380000 M⁻¹ s⁻¹,no binding (tested: 2 µg/mL),no binding (tested: 2 µg/mL),0.000259 s⁻¹,0.31 nm,–,–,–,–,"LP12 (SR16983-R3-P3-F06) (VHH, not shown: small tags and cut ends, Llama VHH purified from E. coli periplasm) VHH: QLQLVESGGGLVQAGDSLRLSCTSSGLTASTYAMAWFRQAPGKEREFVAVVDWKGDTTYANSVKGRFTLSRDNGKNTNYLQMNSLQPEDTALYYCAARGSPGYVARLYAHWGRGTQVTVSS"
–,< 75 % residual activity,–,2.8 nM,0.0017 s⁻¹,620000 M⁻¹ s⁻¹,no binding (tested: 2 µg/mL),no binding (tested: 2 µg/mL),–,0.32 nm,> 90%,no binding,622000 M⁻¹ s⁻¹,–,"LP8 (SR16983-R3-P3-A04) (VHH, not shown: small tags and cut ends, Llama VHH purified from E. coli periplasm) VHH: QLQLVESGGGLVEAGGSLRLSCAASGRTFSSGALGWFRQAPGKEREFVATIRWSDERTQYSEFVKGRFTISRDNAKNTVYLQMNNLQPEDTAVYYCRSTVGNLLYWGQGTQVTVSS"
–,< 75 % residual activity,38.2 min,8.8 nM,0.0011 s⁻¹,130000 M⁻¹ s⁻¹,no binding (tested: 2 µg/mL),no binding (tested: 2 µg/mL),–,0.29 nm,> 90%,no binding,–,126000 M⁻¹ s⁻¹,"LP2 (SR16983-R2-P3-H10) (VHH, not shown: small tags and cut ends, Llama VHH purified from E. coli periplasm) VHH: QVQLVESGGGLVQAGGSLRLSCAASGRPISAYTWAWFRQAPGKEREFVAAITSSAGTTYYADSVRGRFTISRDNAENTVYLRMNTLKPEDTAVYYCAADDQGDNWYDHWGQGTQVTVSS"
